The target of assay [1] is T1, human MARCO (R&D biosystems), recombinant, coated in the LDL competition assay (human, UniProt Q9UEW3 70-520, limits assumed).
T1 construct: Bought protein
T1 sequence (looked up): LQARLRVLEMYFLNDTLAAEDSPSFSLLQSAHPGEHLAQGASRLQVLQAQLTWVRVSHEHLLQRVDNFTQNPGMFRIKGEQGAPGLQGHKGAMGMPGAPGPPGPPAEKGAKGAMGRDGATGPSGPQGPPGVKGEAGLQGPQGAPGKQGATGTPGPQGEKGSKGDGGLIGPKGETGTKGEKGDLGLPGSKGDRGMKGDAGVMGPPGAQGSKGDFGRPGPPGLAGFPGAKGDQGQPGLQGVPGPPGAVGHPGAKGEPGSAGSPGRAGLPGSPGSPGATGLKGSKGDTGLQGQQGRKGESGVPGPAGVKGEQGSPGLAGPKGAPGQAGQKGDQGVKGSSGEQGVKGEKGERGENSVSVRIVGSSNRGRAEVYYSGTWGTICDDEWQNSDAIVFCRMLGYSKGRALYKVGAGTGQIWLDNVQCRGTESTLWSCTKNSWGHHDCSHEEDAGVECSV
In words: LDL competition on coated human MARCO (MSD), competitor biotinylated hLDL. As to the method:
A high-binding, 96-well MSD plate was coated with 4 μg/ml mouse MARCO or 4 μg/ml human MARCO (R&D biosystems). After the plate was blocked with PBST and 5% BSA for an hour, titrated anti-mouse or anti-human MARCO antibodies were added to the plate and incubated for 30 minutes. Biotinylated hLDL (860 pM or 2 μg/ml) were added to the antibody, and the antibody/LDL mixture was incubated for an hour to allow the mixture to reach binding equilibrium. The plates were washed and bound biotinylated LDL was detected with Sulfo-tagged streptavidin that generates an electrocheminlumenscent signal when read buffer is added and electricity is applied to the electrodes in the MSD plate. IC50's were calculated using a 4-parameter curve fit in GraphPad Prism software.
The newly generated rat hybridoma anti-human MARCO antibodies were characterized as previously described. Neither antibody bound to MSR1. Binding kinetics were determined via Multi Cycle Kinetics analysis using the huMARCO antigen as previously described.

Assay [2] addresses T2, Mouse MARCO, full length, on cells (mouse, UniProt Q60754 1-518).
T2 construct: whole, on cells; the cell type is named under assay; also called muMARCO; MuMARCO
T2 sequence (looked up): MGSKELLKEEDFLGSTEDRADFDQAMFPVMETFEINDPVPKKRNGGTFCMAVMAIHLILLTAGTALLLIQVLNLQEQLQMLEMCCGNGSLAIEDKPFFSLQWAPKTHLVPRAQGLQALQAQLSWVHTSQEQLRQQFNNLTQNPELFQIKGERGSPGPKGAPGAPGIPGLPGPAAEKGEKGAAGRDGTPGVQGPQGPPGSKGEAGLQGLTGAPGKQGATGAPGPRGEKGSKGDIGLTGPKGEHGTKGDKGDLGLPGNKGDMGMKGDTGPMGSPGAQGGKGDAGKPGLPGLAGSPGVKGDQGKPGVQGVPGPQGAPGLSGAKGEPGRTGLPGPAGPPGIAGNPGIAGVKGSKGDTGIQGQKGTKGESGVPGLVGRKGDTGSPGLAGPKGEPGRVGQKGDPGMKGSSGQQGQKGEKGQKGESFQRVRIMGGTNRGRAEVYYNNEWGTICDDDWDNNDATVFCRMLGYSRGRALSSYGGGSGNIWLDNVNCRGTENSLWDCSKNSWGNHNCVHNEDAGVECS
As to the kind of experiment: flow cytometry, 293T cells expressing mouse MARCO. On the procedure: Supernatants were removed and cell pellets were resuspended in Ca²⁺+ and Mg²⁺+ Dulbecco's phosphate-buffered saline (D-PBS) at 1×10⁶ cells/ml. 100,000 cells/well were plated onto U-bottom 96-well plates for staining and all centrifugation steps were performed at 1500 rpm at 4° C. for 5 min and samples were kept protected from light throughout the protocol. Cells were pelleted and resuspended in 100 μl of Zombie NIR viability dye (BioLegend) prepared by diluting Zombie NIR dimethyl sulfoxide (DMSO) stock 1000-fold in D-PBS. […] Flow cytometry data were analyzed using FlowJo software (version 10.6.1) and data were processed and further analyzed in Microsoft Excel and GraphPad Prism software (version 8). Half-maximal effective concentrations (EC₅₀) were calculated based on geometric mean fluorescence intensities (gMFI). In case when the plates were not able to be analyzed on the cytometer, cells were pelleted after the washes and fixed in 100 μl of 2% paraformaldehyde (PFA), prepared by diluting the 16% (w/v) stock (Thermo Fisher) in DPBS, for 15 min at RT. […]

Assay [3] concerns the target T3, Human Macrophage Receptor with Collagenous Structure (MARCO), full length, on cells (human, UniProt Q9UEW3 1-520).
T3 construct: the cell type is named under assay; also called huMARCO; HuMARCO
T3 sequence: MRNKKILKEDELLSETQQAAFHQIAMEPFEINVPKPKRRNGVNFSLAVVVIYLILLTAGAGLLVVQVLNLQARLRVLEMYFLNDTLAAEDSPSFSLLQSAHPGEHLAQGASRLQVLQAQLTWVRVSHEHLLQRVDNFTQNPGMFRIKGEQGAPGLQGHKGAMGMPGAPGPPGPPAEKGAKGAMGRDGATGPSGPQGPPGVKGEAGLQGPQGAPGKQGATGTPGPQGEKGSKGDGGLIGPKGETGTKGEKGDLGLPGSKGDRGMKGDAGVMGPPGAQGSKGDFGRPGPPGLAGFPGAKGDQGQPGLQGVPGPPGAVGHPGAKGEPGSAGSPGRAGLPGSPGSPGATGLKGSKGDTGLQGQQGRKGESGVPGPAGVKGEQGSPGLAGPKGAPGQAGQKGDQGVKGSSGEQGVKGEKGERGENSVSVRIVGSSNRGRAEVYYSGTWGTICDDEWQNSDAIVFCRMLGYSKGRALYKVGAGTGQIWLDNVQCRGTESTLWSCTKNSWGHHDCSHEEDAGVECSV
As to the kind of experiment: flow cytometry, cells overexpressing human MARCO. For orientation: In flow cytometry, cells or beads pass a laser one at a time.

As usually defined, the EC50 is the concentration at which the effect is half-maximal.

Changes are numbered by the printed parent chain.

B1: PI-HX-3061 (antibody, rat IgG2a)
heavy: EVQLVESGGGLVQPGSSLKLSCVASKFTFSNYGMNWIRQAPKKGLEWIALIYYNSNNKYYADSVKGRFTISRDNSKNTLYLEMNSLRSEDTAMYYCAKSLTGGSDYFDSWGQGVMVTVSSAETTAPSVYPLAPGTALKSNSMVTLGCLVKGYFPEPVTVTWNSGALSSGVHTFPAVLQSGLYTLTSSVTVPSSTWPSQTVTCNVAHPASSTKVDKKIVPRNCGGDCKPCICTGSEVSSVFIFPPKPKDVLTITLTPKVTCVVVDISQDDPEVHFSWFVDDVEVHTAQTRPPEEQFNSTFRSVSELPILHQDWLNGRTFRCKVTSAAFPSPIEKTISKPEGRTQVPHVYTMSPTKEEMTQNEVSITCMVKGFYPPDIYVEWQMNGQPQENYKNTPPTMDTDGSYFLYSKLNVKKEKWQQGNTFTCSVLHEGLHNHHTEKSLSHSP
light: DVQMTQSPSYLAASPGESVSISCKASKSIGTFLAWYQEKPEKTNKLLIYSGSTLQSGTPSRFSGSGSGTDFTLTIRNLEPEDFAVYYCQQHDEYPFTFGSGTKLEIKRADAAPTVSIFPPSTEQLATGGASVVCLMNNFYPRDISVKWKIDGTERRDGVLDSVTDQDSKDSTYSMSSTLSLTKADYESHNLYTCEVVHKTSSSPVVKSFNRNEC
notes: Parental rat hybridoma, rat IgG2a; cross reactive with human and mouse MARCO
Regarding B1, the EC50 in assay [1] worked out at 8200 pM.

B2: PI-HX-3021 (antibody, V domains shown)
VH: QVRLVQSGTALVRPGASVRMSCTASGYSFTDYWVSWVKQSHGQSLEWIGEIYPNSGTTNFNEKFEGKATLTVDKSTSTAYMELSRLTSEDSAIYYCTGEGTFDYWGQGVMVTVSS
VL: EIVLTQSPTTMAASPGEKVTITCRPSSSLSNMHWFQQKSGTSPKPWIYDTSKLASGVPDRFSGSGSGTSYSLTISSMEAEDAATYYCLQRSSYPPTFGAGTKLELK
notes: Rat IgG2a hybridoma antibody; Not the effector dead PI-3021; also called PI-3007 (name of the recombinant form)
Take B2: the EC50 in assay [2] lay in the range of 470 to 750 pM.

B3: PI-HX-3016 (antibody, rat IgG1, V domains shown)
VH: EVQLVESGGGLVKPGASLKLSCVASGFTFSDDWMNWVRQTPGKAMEWIGDIKYDGSYTNYVPSLKNRLTISRDNAKNTLYLQMTNVRSEDTATYYCTSGGVFDYWGQGVMVTVSS
VL: B2 VL with T5S, P25A, L29V, N31Y, S92G, L105V
notes: Rat IgG1 hybridoma antibody
In assay [2], B3 yielded an EC50 of 360 to 590 pM.

B4: PI-3015-AB (antibody, human IgG1, kappa)
heavy: not shown
light: DIQMTQSPSSLSASVGDRVTITCRASEGISNDLAWYQQKPGKAPKLLIYAASRLQSGVPSRFSGSGSGTDYTLTISSMQPEDFATYYCQQSYKYPLTFGQGTKLEIKRTVAAPSVFIFPPSDEQLKSGTASVVCLLNNFYPREAKVQWKVDNALQSGNSQESVTEQDSKDSTYSLSSTLTLSKADYEKHKVYACEVTHQGLSSPVTKSFNRGEC
Regarding B4, the concentration for a half-maximal effect (EC50) in assay [3] is 860 pM.

B5: PI-3010-AB (antibody, human IgG1, kappa)
heavy: not shown
light: DIQMTQSPASLSTSLGETVSIECLASEGISNDLAWYQQKSGKSPQLLIYAASRLQDGVPSRFSGSGSGTRYSLKISGMQPEDEADYFCQQSYKYPLTFGSGTKLEIKRTVAAPSVFIFPPSDEQLKSGTASVVCLLNNFYPREAKVQWKVDNALQSGNSQESVTEQDSKDSTYSLSSTLTLSKADYEKHKVYACEVTHQGLSSPVTKSFNRGEC
B5 yielded an EC50 in assay [3] of 680 pM.

B6: PI-HX-3031 (antibody)
heavy: QVQLKESGPGLVQPSQTLSLTCTVSGFSLTSYHVSWVRQPPGKGLEWMGAIWTGGSIAYNSLLKSRLSISRDTSKSQVFLKMNSLQTEDTATYYCARDLSDYYSSYTSFDYWGQGVMVTVSTAETTAPSVYPLAPGTALKSNSMVTLGCLVKGYFPEPVTVTWNSGALSSGVHTFPAVLQSGLYTLTSSVTVPSSTWSSQAVTCNVAHPASSTKVDKKIVPRECNPCGCTGSEVSSVFIFPPKTKDVLTITLTPKVTCVVVDISQNDPEVRFSWFIDDVEVHTAQTHAPEKQSNSTLRSVSELPIVHRDWLNGKTFKCKVNSGAFPAPIEKSISKPEGTPRGPQVYTMAPPKEEMTQSQVSITCMVKGFYPPDIYTEWKMNGQPQENYKNTPPTMDTDGSYFLYSKLNVKKETWQQGNTFTCSVLHEGLHNHHTEKSLSHSP
light: DIQMTQSPASLSTSLGETVSIECLASEGISNDLAWYQQKSGKSPQLLIYAASRLQDGVPSRFSGSGSGTRYSLKISGMQPEDEADYFCQQSYKYPLTFGSGTKLEIKRADAAPTVSIFPPSTEQLATGGASVVCLMNNFYPRDISVKWKIDGTERRDGVLDSVTDQDSKDSTYSMSSTLSLTKADYESHNLYTCEVVHKTSSSPVVKSFNRNEC
notes: Parental rat hybridoma, rat IgG2a
Turning to B6, in assay [1], the EC50 turned out to be 6200 pM.

The values are drawn from patent publication US20220153832A1 (PIONYR IMMUNOTHERAPEUTICS, published 2022).
